In US20210139581A1 (Alector, published 2021):
Numbering of substitutions follows the chain as printed.

B1: AB-64.1.4 (antibody, V domains shown)
VH: QVQLVQSGAEVKKPGASVKISCKASGYTFTDYNLHWVRQAPGQGLEWIGFIYPSNGITGYAQKFQGRATLTVDTSTSTAYMELSSLRSEDTAVYYCARSDVDYFDYWGQGTLLTVSS
VL: DIVLTQSPDSLAVSLGERATINCRASQSVSTSTYSYMHWYQQKPGQPPKLLIKYASNLESGVPDRFSGSGSGTDFTLTISSLQAEDVAVYYCQHSWEIPLTFGQGTKLEIK
notes: Variant of AB-64.1
B2: AB-64.1.12 (antibody, V domains shown)
VH: B1 VH with G56R, T74N, T76A
VL: B1 VL
notes: Variant of AB-64.1
B3: AB-64.1.6 (antibody, V domains shown)
VH: B1 VH with T74N, T76A
VL: B1 VL
notes: Variant of AB-64.1
B4: AB-64.1.7 (antibody, V domains shown)
VH: B1 VH with T74N, S75P
VL: B1 VL
notes: Variant of AB-64.1
B5: AB-64.1.14 (antibody, V domains shown)
VH: B1 VH with G56V, T74Q
VL: B1 VL
notes: Variant of AB-64.1
B6: AB-64.1.15 (antibody, V domains shown)
VH: B1 VH with G56V, T74N, T76A
VL: B1 VL
notes: Variant of AB-64.1
B7: AB-64.1.9 (antibody, V domains shown)
VH: B1 VH with G56Q, T74N, S75P
VL: B1 VL
notes: Variant of AB-64.1
B8: AB-64.1.3 (antibody, V domains shown)
VH: B1 VH with G56V, T74N
VL: B1 VL
notes: Variant of AB-64.1
B9: AB-64.1.1 (antibody, V domains shown)
VH: B1 VH with G56Q, T74N
VL: B1 VL
notes: Variant of AB-64.1
B10: AB-64.1.5 (antibody, V domains shown)
VH: B1 VH with T74Q
VL: B1 VL
notes: Variant of AB-64.1
B11: AB-64.1.10 (antibody, V domains shown)
VH: B1 VH with G56R
VL: B1 VL
notes: Variant of AB-64.1
B12: AB-64.1.11 (antibody, V domains shown)
VH: B1 VH with G56R, T74Q
VL: B1 VL
notes: Variant of AB-64.1
B13: AB-64.1.13 (antibody, V domains shown)
VH: B1 VH with G56V
VL: B1 VL
notes: Variant of AB-64.1
B14: Chimeric Ab #2 (antibody, V domains shown)
VH: EVQLQQSGPELVKPGASVKISCKASGYTFTDYNLHWVKLSHGKSLEWIGFIYPSNGITGYNQKFKNKATLTVDTSSSTAYMELRSLTSEDSAVYYCARSTVDYFDYWGQGTTLTVSS
VL: DIVLTQSPASLAVSLGQRATMSCRASQSVSTSTYSYMHWYQQKPGQPPKLLIKYASNLESGVPARFSGSGSGTDFTLNIHPVEEEDTATYYCQHSWEIPLTFGAGTKLELK
notes: Chimeric Ab with a VH-FR3 mutation that removes the predicted N-glycosylation site
B15: AB-64.1 huIgG1 SELF (antibody, V domains shown)
VH: B1 VH with T74N
VL: B1 VL
B16: AB-64.1 huIgG1 (antibody)
heavy: not shown
light: DIVLTQSPDSLAVSLGERATINCRASQSVSTSTYSYMHWYQQKPGQPPKLLIKYASNLESGVPDRFSGSGSGTDFTLTISSLQAEDVAVYYCQHSWEIPLTFGQGTKLEIKRTVAAPSVFIFPPSDEQLKSGTASVVCLLNNFYPREAKVQWKVDNALQSGNSQESVTEQDSKDSTYSLSSTLTLSKADYEKHKVYACEVTHQGLSSPVTKSFNRGEC
B17: AB-64.1 huIgG2 (antibody)
heavy: QVQLVQSGAEVKKPGASVKISCKASGYTFTDYNLHWVRQAPGQGLEWIGFIYPSNGITGYAQKFQGRATLTVDNSTSTAYMELSSLRSEDTAVYYCARSDVDYFDYWGQGTLLTVSSASTKGPSVFPLAPCSRSTSESTAALGCLVKDYFPEPVTVSWNSGALTSGVHTFPAVLQSSGLYSLSSVVTVPSSNFGTQTYTCNVDHKPSNTKVDKTVERKCCVECPPCPAPPVAGPSVFLFPPKPKDTLMISRTPEVTCVVVDVSHEDPEVQFNWYVDGVEVHNAKTKPREEQFNSTFRVVSVLTVVHQDWLNGKEYKCKVSNKGLPAPIEKTISKTKGQPREPQVYTLPPSREEMTKNQVSLTCLVKGFYPSDIAVEWESNGQPENNYKTTPPMLDSDGSFFLYSKLTVDKSRWQQGNVFSCSVMHEALHNHYTQKSLSLSPGK
light: B16 light
B18: AB-14.8 (antibody, V domains shown)
VH: B1 VH with I20V, L34Y, A68V, L70M, A79V, L113V
VL: DIQMTQSPSSLPASVGDRVTITCRASQSVGTSTYSYMHWYQQKPGKAPKLLIKYASNLGSGVPSRFSGSGSGTDFTLTISSLQPEDFATYYCQHSWEIPLTFGQGTKLEIK
B19: AB-14.11 (antibody, V domains shown)
VH: B1 VH with I20V, L34Y, A68V, L70M, A79V, D100S, L113V
VL: B18 VL with P12S, S28D, G30S, A55V, G59E
B20: AB-14.9 (antibody, V domains shown)
VH: B1 VH with I20V, L34Y, A68V, L70M, A79V, L113V
VL: B18 VL with D1G, P12S, S56V, G59E
B21: AB-14.10 (antibody, V domains shown)
VH: B1 VH with I20V, L34Y, A68V, L70M, A79V, L113V
VL: B18 VL with P12S, G30S, T31A, G59E, F87L

target: T1, human CD33 on primary human monocyte-derived dendritic cells (human, UniProt P20138 18-364); experiment: cell-based or functional assay
T1 sequence (P20138 18-364): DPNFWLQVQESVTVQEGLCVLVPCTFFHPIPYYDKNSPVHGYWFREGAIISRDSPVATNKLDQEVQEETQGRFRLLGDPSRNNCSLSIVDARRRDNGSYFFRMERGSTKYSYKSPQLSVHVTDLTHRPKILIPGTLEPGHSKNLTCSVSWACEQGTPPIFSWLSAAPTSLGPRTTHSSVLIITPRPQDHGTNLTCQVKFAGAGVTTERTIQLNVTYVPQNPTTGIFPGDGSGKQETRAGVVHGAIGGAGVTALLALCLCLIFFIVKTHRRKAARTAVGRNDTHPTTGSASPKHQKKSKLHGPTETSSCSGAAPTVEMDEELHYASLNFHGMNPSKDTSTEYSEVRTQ

Row | Receptor downregulation (% remaining at 0.16 µg/mL antibody) [%] | Binder
1 | 38 | B1
2 | 38.5 | B2
3 | 37 | B3
4 | 35.9 | B4
5 | 38.4 | B5
6 | 38.9 | B6
7 | 37.4 | B7
8 | 38.5 | B8
9 | 37 | B9
10 | 37.3 | B10
11 | 39.8 | B11
12 | 38.6 | B12
13 | 35.9 | B13

target: T1, human CD33 on primary human …; experiment: cell-based or functional assay; remark: another data set of the same source

Row | Maximal Downregulation (% CD33 remaining) [%] | Receptor downregulation (EC50) [pM] | Binder
14 | 23.2 | 119 | B14

target: T2, human CD33 (human, UniProt P20138 18-259, limits assumed); experiment: SPR (BIAcore), Fab over CD33 on C1 chip
T2 construct: Human CD33 immobilized on the BLI sensor tip or the BIAcore C1 chip; also called Siglec-3
Description: The affinity parameters for 10 of the 88 humanized antibodies (AB-H1, AB-H3, AB-H6, AB-H11, AB-H22, AB-H24, AB-H26, AB-H63, AB-H64, and AB-H71) were measured in a separate experiment by a more sensitive technique, surface plasmon resonance (BIAcore), and compared to Chimeric Ab and Chimeric Ab #2. BIAcore measurements were performed as follows: human CD33 was immobilized on the surface of a C1 chip, and Fabs were injected for 300 s to monitor association, followed by a 900 s flow in running buffer to monitor dissociation. The Fabs were measured at 5 concentrations: a high concentration of 27 nM and 3-fold serial dilutions.

T2 sequence (P20138 18-259 limits assumed): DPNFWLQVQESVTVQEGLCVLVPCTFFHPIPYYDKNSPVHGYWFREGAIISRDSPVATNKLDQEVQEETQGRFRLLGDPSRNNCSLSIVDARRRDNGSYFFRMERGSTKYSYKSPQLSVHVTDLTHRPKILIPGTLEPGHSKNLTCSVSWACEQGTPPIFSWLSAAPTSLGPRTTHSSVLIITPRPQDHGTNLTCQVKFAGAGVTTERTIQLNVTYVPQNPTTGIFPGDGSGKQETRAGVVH

Row | Fold Change to Chimeric Ab [fold] | Kd [nM] | koff [s⁻¹] | kon [M⁻¹ s⁻¹] | Binder
15 | 0.56 | 2.89 | 0.00286 | 991000 | B14

target: T2, human CD33; experiment: BLI (ForteBio), Fab 100 nM on immobilized CD33
Description: (§1) The affinities (KD) of the humanized antibodies for human CD33 were measured for each antibody by BioLayer Interferometry in a ForteBio assay according to standard techniques (Estep et al. (2013) MAbs 5(2): 270-8). […] The assay was carried out at room temperature.
The affinity parameters of two of the antibodies, 64.1.2 and 64.1.8, were measured in a separate experiment by BIAcore, where they were directly compared to the parental antibody, AB-64.1, the parental humanized antibody, AB-H64, and the Chimeric Ab.

Row | Kd [nM] | Binder
16 | 0.639 | B1
17 | 0.922 | B2
18 | 0.836 | B3
19 | 0.391 | B4
20 | 0.743 | B5
21 | 0.412 | B6
22 | 1.06 | B7
23 | 0.647 | B8
24 | 0.429 | B9
25 | 0.697 | B10
26 | 1.45 | B11
27 | 1.15 | B12
28 | 1.45 | B13

target: T1, human CD33 on primary human …; experiment: cell-based or functional assay; remark: another data set of the same source

Row | Maximal Downregulation (% CD33 remaining) [%] | Receptor downregulation (pM, EC50) [pM] | Binder
29 | 10.9 | 31.9 | B15
30 | 17.5 | 36.2 | B16
31 | 15.1 | 35.6 | B17

target: T1, human CD33 on primary human …; experiment: cell-based or functional assay; remark: another data set of the same source

Row | Maximal Downregulation (% CD33 remaining) [%] | Receptor downregulation (EC50) [pM] | Binder
32 | 21.2 | 23.4 | B18
33 | 27.5 | 47 | B19
34 | 26.1 | 39.9 | B20
35 | 20.9 | 49.4 | B21

target: T1, human CD33 on primary human …; experiment: cell-based or functional assay; remark: another data set of the same source

Row | Maximal Downregulation (% CD33 remaining) [%] | Receptor downregulation (EC50) [pM] | Binder
36 | 23.2 | 119 | B14

target: T2, human CD33; experiment: BLI (ForteBio), Fab 100 nM on immobilized CD33; remark: another data set of the same source
Description: as §1
The affinities of AB-H14 and its affinity-matured variants (Table 15) and AB-H63 and its affinity-matured variants (Table 16), for human CD33 were measured by Fortebio assay according to the method described in Example 1 above.

Row | Fold affinity improvement over parental Ab (AB-H14) [fold] | Kd [nM] | koff [s⁻¹] | kon [M⁻¹ s⁻¹] | Binder
37 | 13.6 | 0.214 | 0.0002 | 935000 | B18
38 | 14.1 | 0.205 | 0.0002 | 974000 | B19
39 | 13.4 | 0.217 | 0.0002 | 921000 | B20
40 | 13.2 | 0.221 | 0.0002 | 906000 | B21
